The text below walks through data of publication PMC8726686.

pKd: −log10 of the molar value.

Experiment [1] deals with JS016-WT (wild-type control antibody). Nature of the experiment: BLI.
In experiment [2] the target is Fc gamma receptor Type IIIa, FcγRIIIa (F176) (human) (UniProt P08637). Description: BLI. In general terms: BLI is a label-free optical method that tracks binding on a fibre tip over time.
Chain of UniProt P08637 (P08637 17-254): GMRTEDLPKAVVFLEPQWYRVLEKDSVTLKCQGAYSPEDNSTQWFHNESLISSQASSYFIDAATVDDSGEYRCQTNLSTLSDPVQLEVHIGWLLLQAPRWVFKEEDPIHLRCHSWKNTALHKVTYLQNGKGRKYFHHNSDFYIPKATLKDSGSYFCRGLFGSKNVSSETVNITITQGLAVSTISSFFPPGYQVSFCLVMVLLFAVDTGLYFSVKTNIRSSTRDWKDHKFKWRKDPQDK

Usually pKd stands for the Kd on a negative log10 scale, so that one unit is a factor of ten. Read a high pKd as a small Kd. The substance “C1q (first subcomponent of the C1 complex)” had a pKd in experiment [1] of 8.67.

In experiment [2], JS016-WT (wild-type control antibody) gave a pKd of 5.70.
